Assay results: the supplement of paper PMC10065799, “High-throughput profiling of sequence recognition by tyrosine kinases and SH2 domains using bacterial peptide display” (eLife, 2023)

Experiments:
EPHB2 = EPHB2 (UniProt P29323); test: phosphorylation enrichment, bacterial display (enrichment ratio); higher = better substrate or ligand; peptides without Tyr show the background
FGFR3 = FGFR3 (UniProt P22607); test: as above
EPHB1 = EPHB1 (UniProt P54762); test: as above
MERTK = MERTK (UniProt Q12866); test: as above
Chain of MERTK (Q12866 whole entry, looked up): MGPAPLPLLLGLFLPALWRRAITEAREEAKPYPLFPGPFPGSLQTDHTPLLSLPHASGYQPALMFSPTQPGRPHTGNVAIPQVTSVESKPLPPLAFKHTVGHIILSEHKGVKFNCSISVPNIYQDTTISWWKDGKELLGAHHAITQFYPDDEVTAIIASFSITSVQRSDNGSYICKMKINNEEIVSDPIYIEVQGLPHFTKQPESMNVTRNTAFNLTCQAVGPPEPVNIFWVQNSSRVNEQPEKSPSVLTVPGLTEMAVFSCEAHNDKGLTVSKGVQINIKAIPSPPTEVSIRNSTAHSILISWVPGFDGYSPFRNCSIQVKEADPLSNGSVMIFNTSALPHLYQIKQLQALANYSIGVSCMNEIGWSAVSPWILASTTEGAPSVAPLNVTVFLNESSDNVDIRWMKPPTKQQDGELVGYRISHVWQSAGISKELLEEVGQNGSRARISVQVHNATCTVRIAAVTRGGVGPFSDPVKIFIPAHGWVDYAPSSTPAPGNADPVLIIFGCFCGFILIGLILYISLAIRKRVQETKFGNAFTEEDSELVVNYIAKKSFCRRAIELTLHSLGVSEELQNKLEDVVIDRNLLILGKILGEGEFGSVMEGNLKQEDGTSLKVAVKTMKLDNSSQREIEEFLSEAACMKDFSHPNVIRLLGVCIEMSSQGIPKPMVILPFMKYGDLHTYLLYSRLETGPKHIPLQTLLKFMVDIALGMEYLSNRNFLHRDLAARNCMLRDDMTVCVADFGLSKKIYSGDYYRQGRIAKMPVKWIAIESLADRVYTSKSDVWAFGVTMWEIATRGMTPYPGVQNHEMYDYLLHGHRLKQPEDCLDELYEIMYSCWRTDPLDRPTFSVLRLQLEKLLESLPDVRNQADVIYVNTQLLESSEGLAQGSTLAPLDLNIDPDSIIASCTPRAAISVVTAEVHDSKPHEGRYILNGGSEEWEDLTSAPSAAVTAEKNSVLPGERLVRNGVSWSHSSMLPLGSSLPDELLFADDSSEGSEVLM

FGFR1 = FGFR1 (UniProt P11362); test: as above
Fyn = Fyn (UniProt P06241); test: as above
Hck = Hck (UniProt P08631); test: as above
Chain of Hck (P08631 whole entry, looked up): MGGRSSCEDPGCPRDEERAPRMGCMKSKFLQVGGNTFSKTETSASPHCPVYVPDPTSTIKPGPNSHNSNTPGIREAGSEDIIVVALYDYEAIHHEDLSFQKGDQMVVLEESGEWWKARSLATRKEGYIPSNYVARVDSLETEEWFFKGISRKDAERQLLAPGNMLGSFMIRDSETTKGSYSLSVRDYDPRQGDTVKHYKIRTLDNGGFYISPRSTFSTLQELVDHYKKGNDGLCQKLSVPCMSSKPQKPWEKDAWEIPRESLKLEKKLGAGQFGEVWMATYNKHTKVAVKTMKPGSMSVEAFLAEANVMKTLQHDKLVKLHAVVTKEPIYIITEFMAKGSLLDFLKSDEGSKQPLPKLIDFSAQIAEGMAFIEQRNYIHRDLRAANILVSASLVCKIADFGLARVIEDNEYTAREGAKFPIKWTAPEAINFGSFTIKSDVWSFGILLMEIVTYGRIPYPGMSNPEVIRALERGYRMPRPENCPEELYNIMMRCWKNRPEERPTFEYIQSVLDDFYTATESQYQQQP

c-Abl (mouse) = test: as above
AncSZ = test: as above
c-Src = test: as above
Jak2 = Jak2 (UniProt O60674); test: as above
Chain of Jak2 (O60674 whole entry, looked up): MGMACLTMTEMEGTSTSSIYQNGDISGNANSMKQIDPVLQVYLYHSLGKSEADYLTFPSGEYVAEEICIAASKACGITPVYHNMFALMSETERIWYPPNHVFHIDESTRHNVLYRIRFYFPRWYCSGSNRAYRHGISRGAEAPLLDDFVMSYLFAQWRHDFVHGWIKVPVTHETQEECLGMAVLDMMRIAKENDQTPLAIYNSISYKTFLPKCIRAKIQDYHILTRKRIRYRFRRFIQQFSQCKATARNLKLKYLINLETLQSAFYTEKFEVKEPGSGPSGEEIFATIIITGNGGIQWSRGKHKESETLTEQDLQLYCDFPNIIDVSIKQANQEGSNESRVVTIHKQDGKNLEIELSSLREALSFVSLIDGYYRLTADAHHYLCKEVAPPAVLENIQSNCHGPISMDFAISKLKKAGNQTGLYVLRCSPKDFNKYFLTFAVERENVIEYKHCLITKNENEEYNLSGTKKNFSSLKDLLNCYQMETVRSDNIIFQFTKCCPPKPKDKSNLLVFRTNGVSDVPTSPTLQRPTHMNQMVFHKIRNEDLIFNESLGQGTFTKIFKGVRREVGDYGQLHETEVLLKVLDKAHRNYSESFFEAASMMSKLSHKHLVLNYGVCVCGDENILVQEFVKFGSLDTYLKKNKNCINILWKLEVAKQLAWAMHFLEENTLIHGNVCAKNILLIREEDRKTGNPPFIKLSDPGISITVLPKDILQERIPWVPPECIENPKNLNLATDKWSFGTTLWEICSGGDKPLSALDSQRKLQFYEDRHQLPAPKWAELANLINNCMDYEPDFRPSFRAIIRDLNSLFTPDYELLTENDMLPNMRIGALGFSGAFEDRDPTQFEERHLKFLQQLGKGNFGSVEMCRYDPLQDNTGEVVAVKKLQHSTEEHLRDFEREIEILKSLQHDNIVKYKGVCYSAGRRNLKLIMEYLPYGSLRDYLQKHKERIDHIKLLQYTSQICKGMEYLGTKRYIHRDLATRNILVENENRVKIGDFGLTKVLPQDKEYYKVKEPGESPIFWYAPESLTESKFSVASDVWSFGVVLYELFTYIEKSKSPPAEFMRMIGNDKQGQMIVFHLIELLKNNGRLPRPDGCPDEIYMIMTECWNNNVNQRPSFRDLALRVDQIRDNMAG

Fes = Fes (UniProt P07332); test: as above
Fer (mouse) = test: as above
c-Src SH2 = test: SH2 binding enrichment of the phosphorylated peptide, bacterial display (enrichment ratio); higher = better substrate or ligand; peptides without Tyr show the background
SHP2-C SH2 = test: as above
Grb2 SH2 = Grb2 SH2 (UniProt P62993); test: as above
Chain of Grb2 SH2 (P62993 whole entry, looked up, the tested form may be a part): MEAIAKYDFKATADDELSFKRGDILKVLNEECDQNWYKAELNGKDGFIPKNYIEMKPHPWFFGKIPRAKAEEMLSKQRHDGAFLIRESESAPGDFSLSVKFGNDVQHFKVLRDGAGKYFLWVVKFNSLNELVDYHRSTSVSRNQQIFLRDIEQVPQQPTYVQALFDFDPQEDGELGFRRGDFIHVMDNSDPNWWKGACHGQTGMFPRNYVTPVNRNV
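For SH2 binding enrichment of the phosphorylated peptide, bacterial display in this document: peptide library displayed on the E. coli surface as eCPX fusions, selected cells deep-sequenced, score is each peptide's frequency after selection divided by its frequency in the input.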
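For phosphorylation enrichment, bacterial display in this document: 11-residue human phosphosite peptides and single-mutation variants displayed on the E. coli surface, counted by deep sequencing, each peptide's frequency after selection divided by its frequency in the unselected input library; frequency after pTyr selection over input frequency; kinase dosed for 20-30% of maximal phosphorylation in three min.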

Chain of FGFR3 (P22607 whole entry, looked up): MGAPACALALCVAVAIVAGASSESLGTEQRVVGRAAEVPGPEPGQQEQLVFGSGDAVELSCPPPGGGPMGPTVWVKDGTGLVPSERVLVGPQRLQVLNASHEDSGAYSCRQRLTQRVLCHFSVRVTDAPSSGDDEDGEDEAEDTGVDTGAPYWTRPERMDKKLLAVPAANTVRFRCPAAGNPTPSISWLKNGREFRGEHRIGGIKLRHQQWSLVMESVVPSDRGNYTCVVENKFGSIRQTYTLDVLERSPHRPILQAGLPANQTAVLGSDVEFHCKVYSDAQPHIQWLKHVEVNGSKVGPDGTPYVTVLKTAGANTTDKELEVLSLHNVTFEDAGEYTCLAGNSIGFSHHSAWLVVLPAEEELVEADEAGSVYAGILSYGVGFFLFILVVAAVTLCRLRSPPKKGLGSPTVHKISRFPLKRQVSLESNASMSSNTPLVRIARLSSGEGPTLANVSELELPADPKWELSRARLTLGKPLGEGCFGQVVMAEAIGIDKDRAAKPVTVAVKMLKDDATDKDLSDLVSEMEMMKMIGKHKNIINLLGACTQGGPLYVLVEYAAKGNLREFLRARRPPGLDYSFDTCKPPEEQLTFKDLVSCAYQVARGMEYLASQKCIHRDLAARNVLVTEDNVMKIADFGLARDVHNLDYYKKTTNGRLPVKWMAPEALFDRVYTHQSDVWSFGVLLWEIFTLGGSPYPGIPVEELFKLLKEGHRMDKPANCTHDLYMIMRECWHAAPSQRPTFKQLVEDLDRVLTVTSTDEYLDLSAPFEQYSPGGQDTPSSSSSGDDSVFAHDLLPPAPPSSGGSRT
Chain of EPHB2 (P29323 whole entry, looked up): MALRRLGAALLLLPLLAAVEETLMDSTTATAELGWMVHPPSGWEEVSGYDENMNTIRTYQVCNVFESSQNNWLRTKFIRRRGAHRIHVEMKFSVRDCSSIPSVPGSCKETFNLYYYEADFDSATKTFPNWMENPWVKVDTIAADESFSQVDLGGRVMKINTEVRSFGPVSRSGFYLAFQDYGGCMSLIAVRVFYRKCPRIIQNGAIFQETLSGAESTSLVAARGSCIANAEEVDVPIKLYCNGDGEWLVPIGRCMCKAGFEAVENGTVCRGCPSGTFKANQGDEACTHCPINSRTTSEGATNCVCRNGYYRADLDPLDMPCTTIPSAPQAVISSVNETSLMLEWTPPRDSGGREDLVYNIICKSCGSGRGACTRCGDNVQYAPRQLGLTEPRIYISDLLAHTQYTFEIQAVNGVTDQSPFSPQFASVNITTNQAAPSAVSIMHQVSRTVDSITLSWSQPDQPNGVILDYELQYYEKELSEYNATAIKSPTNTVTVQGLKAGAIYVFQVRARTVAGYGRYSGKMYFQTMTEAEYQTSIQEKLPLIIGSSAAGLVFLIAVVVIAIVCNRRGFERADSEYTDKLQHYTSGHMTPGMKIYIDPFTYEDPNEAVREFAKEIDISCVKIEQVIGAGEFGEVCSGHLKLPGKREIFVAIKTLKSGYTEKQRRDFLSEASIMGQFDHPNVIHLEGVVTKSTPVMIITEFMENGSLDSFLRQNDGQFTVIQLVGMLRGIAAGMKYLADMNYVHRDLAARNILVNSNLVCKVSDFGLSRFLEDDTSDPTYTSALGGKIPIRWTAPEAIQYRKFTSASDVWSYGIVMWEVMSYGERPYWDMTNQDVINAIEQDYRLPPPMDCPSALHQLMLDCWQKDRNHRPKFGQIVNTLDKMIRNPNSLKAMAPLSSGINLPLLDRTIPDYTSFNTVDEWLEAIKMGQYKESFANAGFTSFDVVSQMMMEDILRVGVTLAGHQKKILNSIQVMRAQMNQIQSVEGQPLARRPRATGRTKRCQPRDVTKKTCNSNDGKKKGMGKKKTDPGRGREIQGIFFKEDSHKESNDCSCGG

Sequence | phosphorylation enrichment (EPHB2) | phosphorylation enrichment (FGFR3) | phosphorylation enrichment (EPHB1) | phosphorylation enrichment (MERTK) | phosphorylation enrichment (FGFR1) | phosphorylation enrichment (Fyn) | phosphorylation enrichment (Hck) | phosphorylation enrichment (c-Abl (mouse)) | phosphorylation enrichment (AncSZ) | phosphorylation enrichment (c-Src) | phosphorylation enrichment (Jak2) | phosphorylation enrichment (Fes) | phosphorylation enrichment (Fer (mouse)) | SH2 binding enrichment (c-Src SH2) | SH2 binding enrichment (SHP2-C SH2) | SH2 binding enrichment (Grb2 SH2)
HNLNYYKKTTN [FGFR3_Y648_D646N] | 0.361 | 0.531 | 0.337 | 0.479 | 0.468 | 0.491 | 0.258 | 0.554 | 0.791 | 0.429 | 0.648 | 0.507 | 0.461 | 0.479 | 0.683 | 0.738
NQDRTYYESVR [SPEN_Y632] | 0.661 | 0.828 | 0.569 | 1.02 | 1.02 | 1.4 | 2.05 | 0.787 | 0.897 | 2 | 0.762 | 0.819 | 0.993 | 5 | 0.963 | 0.924
IHRWVYPLTPE [EIF2B5_Y319_R315H] | 0.503 | 0.698 | 0.525 | 0.487 | 0.488 | 0.511 | 0.487 | 0.621 | 1.03 | 0.446 | 0.885 | 0.918 | 0.405 | 1.06 | 1.29 | 1.25
YALAEYTEVKT [ALDH1A3_Y497] | 0.719 | 1.25 | 0.651 | 0.652 | 1.73 | 0.572 | 0.724 | 0.614 | 1.29 | 0.658 | 0.812 | 0.901 | 1.31 | 5.59 | 4.27 | 0.66
VNTMLYEKFTF [TEK_Y1108_T1106M_YF] | 4.34 | 0.697 | 6.33 | 8.45 | 0.621 | 5.93 | 6.73 | 2.38 | 1.29 | 6.07 | 0.917 | 1.22 | 13.7 | 0.71 | 0.736 | 1.01
EYGRRYGFSCQ [CCDC93_Y209_R213C] | 0.594 | 0.696 | 0.59 | 0.476 | 0.526 | 0.53 | 0.617 | 0.881 | 0.931 | 0.483 | 1.2 | 1.12 | 0.526 | 0.418 | 0.492 | 0.725
IGEGTYRTVFK [CDK5_Y15_G16R] | 0.432 | 0.533 | 0.362 | 0.384 | 0.353 | 0.459 | 0.532 | 0.638 | 0.542 | 0.558 | 0.781 | 0.738 | 0.317 | 0.47 | 0.614 | 0.674
YPPDGYSRHYE [CTNND1_Y213] | 0.394 | 0.548 | 0.388 | 0.395 | 0.451 | 0.348 | 0.414 | 0.355 | 0.561 | 0.354 | 0.534 | 0.655 | 0.354 | 1.21 | 1.04 | 0.911
TMKSRYMELYD [BBS2_Y644] | 0.608 | 0.556 | 0.535 | 0.456 | 0.489 | 0.475 | 0.694 | 0.624 | 0.812 | 0.73 | 0.808 | 0.868 | 0.426 | 4.93 | 1.2 | 0.809
MGGSLYFSYPD [HIKESHI_Y55_V54L] | 5.75 | 3.12 | 4.44 | 7.06 | 3.4 | 3.46 | 3.45 | 1.16 | 1.49 | 4.41 | 2.11 | 1.26 | 0.802 | 0.656 | 0.605 | 0.77
EEGEEYGGGGG [TUBA1A_Y451] | 0.769 | 0.701 | 0.638 | 0.485 | 0.604 | 0.557 | 0.602 | 0.815 | 1.19 | 0.531 | 0.946 | 1.32 | 0.552 | 0.6 | 0.744 | 0.97
TLQSMYGCDLG [HLA-B_Y123_V127L] | 0.522 | 0.858 | 0.836 | 0.518 | 0.491 | 0.576 | 0.591 | 1.06 | 1.18 | 0.597 | 1.06 | 1.38 | 0.659 | 0.586 | 0.591 | 0.674
RRERLYGGGGG [FUS_Y526_P525L] | 0.398 | 0.545 | 0.677 | 0.561 | 0.546 | 0.535 | 0.365 | 0.39 | 0.701 | 0.878 | 0.528 | 1.14 | 0.499 | 0.402 | 0.404 | 0.657
KGIQLYDTPYE [SHB_Y297] | 15.6 | 0.695 | 11.3 | 5.25 | 0.564 | 0.891 | 1.84 | 1.13 | 1.5 | 1.24 | 1.13 | 1.04 | 3.26 | 4.71 | 1.1 | 1.15
DQVEQYKKELE [LMNA_Y259] | 0.644 | 0.688 | 0.67 | 0.527 | 0.561 | 0.516 | 0.509 | 0.878 | 1.32 | 0.603 | 0.956 | 1.2 | 0.534 | 0.841 | 0.66 | 0.956
EFKDAYKFAAD [BRDT_Y335_YF] | 0.491 | 0.524 | 0.367 | 0.492 | 0.414 | 0.414 | 0.429 | 0.459 | 0.647 | 0.447 | 0.638 | 0.731 | 0.408 | 0.459 | 0.779 | 0.7
